Our source for the EC50 values is patent US20260317443 (published 2026).

Where a chain is given by its changes, count along the chain named.

The target of the experiment is human VWF (human). The experiment can be described thus: ELISA.
human VWF (human), sequence (P04275 whole entry): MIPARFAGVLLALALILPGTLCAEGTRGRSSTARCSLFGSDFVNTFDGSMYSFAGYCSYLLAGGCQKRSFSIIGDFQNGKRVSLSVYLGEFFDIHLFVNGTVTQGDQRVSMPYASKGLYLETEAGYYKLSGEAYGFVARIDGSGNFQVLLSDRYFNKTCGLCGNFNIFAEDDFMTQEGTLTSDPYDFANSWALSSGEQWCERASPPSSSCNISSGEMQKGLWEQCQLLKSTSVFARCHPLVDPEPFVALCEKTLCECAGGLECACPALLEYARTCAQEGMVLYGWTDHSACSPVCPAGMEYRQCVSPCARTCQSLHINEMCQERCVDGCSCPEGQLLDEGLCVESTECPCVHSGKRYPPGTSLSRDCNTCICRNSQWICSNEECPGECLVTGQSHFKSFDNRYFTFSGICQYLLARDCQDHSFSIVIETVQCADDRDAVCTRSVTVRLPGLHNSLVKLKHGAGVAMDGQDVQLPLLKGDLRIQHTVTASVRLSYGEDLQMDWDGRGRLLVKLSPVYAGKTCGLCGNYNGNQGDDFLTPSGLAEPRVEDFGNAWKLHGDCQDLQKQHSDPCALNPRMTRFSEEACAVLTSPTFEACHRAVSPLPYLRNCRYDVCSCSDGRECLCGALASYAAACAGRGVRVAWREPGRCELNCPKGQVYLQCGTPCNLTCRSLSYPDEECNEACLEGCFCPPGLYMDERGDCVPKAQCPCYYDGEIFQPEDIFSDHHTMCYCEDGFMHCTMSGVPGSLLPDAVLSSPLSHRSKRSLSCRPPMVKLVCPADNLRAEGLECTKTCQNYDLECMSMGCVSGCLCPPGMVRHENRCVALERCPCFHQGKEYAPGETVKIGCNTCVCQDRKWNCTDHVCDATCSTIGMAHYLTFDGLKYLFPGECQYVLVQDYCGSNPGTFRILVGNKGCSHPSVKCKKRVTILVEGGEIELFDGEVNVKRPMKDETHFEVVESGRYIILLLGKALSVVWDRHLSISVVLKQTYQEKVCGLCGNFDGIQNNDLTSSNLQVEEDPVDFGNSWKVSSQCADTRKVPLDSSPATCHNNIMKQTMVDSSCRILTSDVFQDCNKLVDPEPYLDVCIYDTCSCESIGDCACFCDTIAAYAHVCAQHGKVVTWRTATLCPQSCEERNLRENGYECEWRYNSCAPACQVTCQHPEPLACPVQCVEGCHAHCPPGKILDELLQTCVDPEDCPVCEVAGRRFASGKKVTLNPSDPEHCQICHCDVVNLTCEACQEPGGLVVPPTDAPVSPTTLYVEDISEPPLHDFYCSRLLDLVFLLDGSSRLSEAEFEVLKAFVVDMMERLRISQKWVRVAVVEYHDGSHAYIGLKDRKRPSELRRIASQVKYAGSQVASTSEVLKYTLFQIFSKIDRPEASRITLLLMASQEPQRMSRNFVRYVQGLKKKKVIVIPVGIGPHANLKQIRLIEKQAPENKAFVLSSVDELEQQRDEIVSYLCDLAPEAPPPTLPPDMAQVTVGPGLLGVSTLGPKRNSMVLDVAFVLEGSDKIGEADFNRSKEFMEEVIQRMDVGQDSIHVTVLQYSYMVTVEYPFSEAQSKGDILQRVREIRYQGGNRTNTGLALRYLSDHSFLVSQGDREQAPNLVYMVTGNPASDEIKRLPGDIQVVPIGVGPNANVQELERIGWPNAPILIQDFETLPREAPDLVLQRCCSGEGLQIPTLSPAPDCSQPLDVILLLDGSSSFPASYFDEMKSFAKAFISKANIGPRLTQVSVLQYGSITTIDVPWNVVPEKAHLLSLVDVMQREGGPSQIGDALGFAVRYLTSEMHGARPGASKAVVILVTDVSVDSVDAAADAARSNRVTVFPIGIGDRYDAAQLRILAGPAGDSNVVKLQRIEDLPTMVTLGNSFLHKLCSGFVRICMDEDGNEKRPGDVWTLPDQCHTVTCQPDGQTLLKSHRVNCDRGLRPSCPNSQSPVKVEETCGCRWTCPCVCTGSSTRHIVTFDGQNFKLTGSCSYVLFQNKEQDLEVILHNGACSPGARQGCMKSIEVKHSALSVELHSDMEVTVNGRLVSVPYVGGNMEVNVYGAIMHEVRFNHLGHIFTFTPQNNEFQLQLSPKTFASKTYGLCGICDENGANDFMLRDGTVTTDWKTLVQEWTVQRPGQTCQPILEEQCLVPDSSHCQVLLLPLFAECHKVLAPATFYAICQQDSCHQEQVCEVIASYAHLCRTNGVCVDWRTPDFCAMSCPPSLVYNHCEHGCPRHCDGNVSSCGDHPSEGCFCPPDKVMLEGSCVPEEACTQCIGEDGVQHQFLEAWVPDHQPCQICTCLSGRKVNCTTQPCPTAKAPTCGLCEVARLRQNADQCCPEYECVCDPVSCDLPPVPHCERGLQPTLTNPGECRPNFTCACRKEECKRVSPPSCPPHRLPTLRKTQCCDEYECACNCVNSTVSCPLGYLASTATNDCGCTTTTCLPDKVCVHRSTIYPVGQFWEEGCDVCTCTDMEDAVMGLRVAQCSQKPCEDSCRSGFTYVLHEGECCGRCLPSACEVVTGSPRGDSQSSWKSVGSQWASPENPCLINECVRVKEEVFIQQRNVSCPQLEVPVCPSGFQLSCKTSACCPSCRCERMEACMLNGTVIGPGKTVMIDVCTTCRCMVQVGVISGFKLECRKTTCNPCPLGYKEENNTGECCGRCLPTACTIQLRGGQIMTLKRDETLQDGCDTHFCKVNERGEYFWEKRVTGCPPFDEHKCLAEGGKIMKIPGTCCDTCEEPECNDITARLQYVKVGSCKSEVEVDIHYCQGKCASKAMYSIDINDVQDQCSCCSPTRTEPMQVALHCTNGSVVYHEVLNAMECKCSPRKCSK

B1: 33D03_H5-L4 (antibody, V domains shown)
VH: EVQLVQSGAEVKKPGASVKVSCKASGYTFTDYYLNWVRQAPGQRLEWMGIINPYNGGTNYNQRFKGRVTLTVDKSSSTAYMELSSLRSEDTAVYYCASEGLRTWFTYWGQGTLVTVSS
VL: DIVMTQSPDSLAVSLGERATISCKSSQSLSNSGNQKIYLAWYQQKPGQPPKLLIYGASSRESGVPDRFSGSGSEIDFTLTISSLQAEDVAVYYCQNDHSHPFTFGQGTKLEIK
B1 displayed an EC50 of 0.0365 µg/mL.

B2: 33D03_H5-L2 (antibody, V domains shown)
VH: B1 VH
VL: B1 VL with E74G, I75T
Turning to B2, the EC50 was 0.0294 µg/mL.

B3: 33D03_H1-L1 (antibody, V domains shown)
VH: B1 VH with E1Q, N61S, R63K, K65Q, L70I, V72R, K74T, S76A
VL: B1 VL with S22N, E74G, I75T
For B3, the EC50 turned out to be 0.0437 µg/mL.

B4: 33D03_H3-L4 (antibody, V domains shown)
VH: B1 VH with E1Q, N61S, R63K, K65Q, L70I
VL: B1 VL
B4 registered an EC50 of 0.0434 µg/mL.

B5: 33D03_H5-L1 (antibody, V domains shown)
VH: B1 VH
VL: B1 VL with S22N, E74G, I75T
B5: the midpoint of the response, the EC50, lay at 0.0297 µg/mL.

B6: 33D03_H5-L3 (antibody, V domains shown)
VH: B1 VH
VL: B1 VL with S22N
B6 came in with an EC50 of 0.0335 µg/mL.

B7: 33D03_H1-L4 (antibody, V domains shown)
VH: B1 VH with E1Q, N61S, R63K, K65Q, L70I, V72R, K74T, S76A
VL: B1 VL
Regarding B7, the EC50 came out at 0.054 µg/mL.

B8: 33D03_H3-L1 (antibody, V domains shown)
VH: B1 VH with E1Q, N61S, R63K, K65Q, L70I
VL: B1 VL with S22N, E74G, I75T
In the case of B8, the EC50 was 0.0447 µg/mL. This EC50 and that of the molecule before are within 1.5-fold of each other.

B9: 33D03_H1-L2 (antibody, V domains shown)
VH: B1 VH with E1Q, N61S, R63K, K65Q, L70I, V72R, K74T, S76A
VL: B1 VL with E74G, I75T
B9 displayed an EC50 of 0.0453 µg/mL.

B10: 25B05_H2-L1 (antibody, V domains shown)
VH: QVQLVQSGAEVKKPGASVKVSCKASGYTFTDYFMNWVRQAPGQRLEWMGVINPHNGGTSYSQKFQGRVTITVDKSSSTAYMELSSLRSEDTAVYYCARRPLGSDYWGQGTTVTVSS
VL: DIQMTQSPSSVSASVGDRVTITCKASQNVGTAVAWYQQKPGKAPKLLIYSASSRYTGVPSRFSGSGSGTDFTLTISSLQPEDFATYYCQQYSSYPLTFGQGTKLEIK
B10 gave an EC50 of 0.0612 µg/mL.

B11: 25B05_H1-L4 (antibody, V domains shown)
VH: B10 VH with V72R, K74T, S76A
VL: B10 VL with Q3V, G57E, S60D
Molecule B11 gave a concentration for a half-maximal effect (EC50) of 0.0344 µg/mL. This EC50 lies about 1.8-fold lower than the previous one.

B12: 25B05_H1-L2 (antibody, V domains shown)
VH: B10 VH with V72R, K74T, S76A
VL: B10 VL with Q3V
B12 showed an EC50 of 0.0334 µg/mL.

B13: 25B05_H4-L1 (antibody, V domains shown)
VH: B10 VH with Q1E, I70L
VL: B10 VL
As for B13, the EC50 was found to be 0.0385 µg/mL.

B14: 25B05_H3-L3 (antibody, V domains shown)
VH: B10 VH with Q1E
VL: B10 VL with G57E, S60D
As for B14, the EC50 was 0.0434 µg/mL. This EC50 and that of the molecule before are within 1.5-fold of each other.

B15: 25B05_H1-L1 (antibody, V domains shown)
VH: B10 VH with V72R, K74T, S76A
VL: B10 VL
As for B15, the EC50 is 0.0312 µg/mL.

B16: 25B05_H4-L4 (antibody, V domains shown)
VH: B10 VH with Q1E, I70L
VL: B10 VL with Q3V, G57E, S60D
In turn, B16 gave an EC50 of 0.0264 µg/mL.
